From PMC7769003

Biological target: Recombinant VEEV p62-E1 protein (TrD strain) (Venezuelan equine encephalitis virus (TrD strain))
Experiment: SPR

HRV-cleaved monovalent Ldlrad3-D1 (from UniProt A2AR95 18-70) (domain or fragment)
Kd: 209 nM
